System: Escherichia coli TOP10
Test: shrunken log2 fold change of peptide-encoding DNA abundance (4.5 h post-induction vs induction); higher = less antimicrobial activity (less host growth inhibition)
Conditions: time post-induction: 4.5 h; library: site-saturation at positions 5, 18, 19, 20
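Also: peptides expressed intracellularly from a pBAD plasmid library in pooled LB shake-flask culture, induced with 0.3% L-arabinose, DNA abundance read by NGS, three biological replicates, DESeq2 with apeglm shrinkage.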

| Sequence | shrunken log2 fold change |
| --- | --- |
| RRIRVRPPRLPRPRPRPFVRPRP | -0.0708 |
| RRIRARPPRLPRPRPRPIYLPRP | -0.152 |
| RRIRMRPPRLPRPRPRPTHNPRP | 0.275 |
| RRIRCRPPRLPRPRPRPCFWPRP | 0.216 |
| RRIRVRPPRLPRPRPRPRRMPRP | 0.422 |
| RRIRYRPPRLPRPRPRPLRNPRP | -0.277 |
| RRIRFRPPRLPRPRPRPAPQPRP | 0.666 |
| RRIRDRPPRLPRPRPRPSINPRP | -0.113 |
| RRIRGRPPRLPRPRPRPNVDPRP | 0.715 |
| RRIRERPPRLPRPRPRPPFVPRP | 0.072 |
| RRIRGRPPRLPRPRPRPGFCPRP | 0.925 |
| RRIRMRPPRLPRPRPRPFAGPRP | -0.0745 |
| RRIRHRPPRLPRPRPRPLPYPRP | -0.137 |
| RRIRYRPPRLPRPRPRPYYEPRP | -0.28 |
| RRIRSRPPRLPRPRPRPREIPRP | 0.426 |
| RRIRRRPPRLPRPRPRPQHGPRP | 0.198 |
| RRIRWRPPRLPRPRPRPVILPRP | -0.208 |
| RRIRCRPPRLPRPRPRPNVGPRP | 0.0143 |
| RRIRIRPPRLPRPRPRPGCAPRP | 0.185 |
| RRIRIRPPRLPRPRPRPQLVPRP | -0.163 |
| RRIRTRPPRLPRPRPRPIMCPRP | -0.255 |
| RRIRWRPPRLPRPRPRPEGTPRP | 0.103 |
| RRIRYRPPRLPRPRPRPSVIPRP | -0.616 |
| RRIRDRPPRLPRPRPRPTRNPRP | 0.174 |
| RRIRTRPPRLPRPRPRPVNRPRP | -0.0356 |

| Sequence | shrunken log2 fold change |
| --- | --- |
| RRIRLRPPRLPRPRPRPQQGPRP | -0.0774 |
| RRIRNRPPRLPRPRPRPKDIPRP | 0.0127 |
| RRIRMRPPRLPRPRPRPEQKPRP | -0.0148 |
| RRIRYRPPRLPRPRPRPPWFPRP | -0.205 |
| RRIRRRPPRLPRPRPRPTAIPRP | 0.211 |
| RRIRARPPRLPRPRPRPCKTPRP | 0.107 |
| RRIRERPPRLPRPRPRPIKDPRP | -0.168 |
| RRIRPRPPRLPRPRPRPANEPRP | 0.18 |
| RRIRMRPPRLPRPRPRPWTGPRP | -0.217 |
| RRIRTRPPRLPRPRPRPGDFPRP | -0.093 |
| RRIRHRPPRLPRPRPRPRGYPRP | -0.144 |
| RRIRYRPPRLPRPRPRPPVDPRP | 0.155 |
| RRIRMRPPRLPRPRPRPFFHPRP | -0.243 |
| RRIRMRPPRLPRPRPRPDFEPRP | 0.589 |
| RRIRVRPPRLPRPRPRPLYAPRP | -0.154 |
| RRIRTRPPRLPRPRPRPQYEPRP | 0.00772 |
| RRIRHRPPRLPRPRPRPHYFPRP | 0.00508 |
| RRIRSRPPRLPRPRPRPQFWPRP | 0.268 |
| RRIRDRPPRLPRPRPRPHAFPRP | -0.0699 |
| RRIRDRPPRLPRPRPRPGSCPRP | 0.127 |
| RRIRSRPPRLPRPRPRPIPSPRP | -0.00523 |
| RRIRARPPRLPRPRPRPPDDPRP | 1.2 |
| RRIRGRPPRLPRPRPRPPFDPRP | 0.835 |
| RRIRARPPRLPRPRPRPPRAPRP | 0.932 |
| RRIRVRPPRLPRPRPRPNCNPRP | -0.273 |

| Sequence | shrunken log2 fold change |
| --- | --- |
| RRIRNRPPRLPRPRPRPKQHPRP | -0.253 |
| RRIRARPPRLPRPRPRPNEYPRP | -0.284 |
| RRIRFRPPRLPRPRPRPEIDPRP | 0.0823 |
| RRIRQRPPRLPRPRPRPDQHPRP | 0.00878 |
| RRIRHRPPRLPRPRPRPFMGPRP | -0.103 |
| RRIRNRPPRLPRPRPRPTMLPRP | -0.241 |
| RRIRIRPPRLPRPRPRPGDRPRP | -0.123 |
| RRIRMRPPRLPRPRPRPYYGPRP | 0.0528 |
| RRIRERPPRLPRPRPRPDRWPRP | -0.0318 |
| RRIRFRPPRLPRPRPRPHGKPRP | -0.0579 |
| RRIRMRPPRLPRPRPRPVCEPRP | 0.353 |
| RRIRVRPPRLPRPRPRPRARPRP | 0.737 |
| RRIRLRPPRLPRPRPRPEPSPRP | 0.787 |
| RRIRLRPPRLPRPRPRPDKDPRP | 0.0388 |
| RRIRNRPPRLPRPRPRPFFIPRP | -0.586 |
| RRIRCRPPRLPRPRPRPLCCPRP | -0.237 |
| RRIRGRPPRLPRPRPRPYVRPRP | -0.51 |
| RRIRSRPPRLPRPRPRPLPPPRP | 0.518 |
| RRIRERPPRLPRPRPRPYRNPRP | -0.166 |
| RRIRGRPPRLPRPRPRPSTHPRP | 0.159 |
| RRIRKRPPRLPRPRPRPWKVPRP | -0.000777 |
| RRIRTRPPRLPRPRPRPMSKPRP | -0.0499 |
| RRIRCRPPRLPRPRPRPCMYPRP | -0.0898 |
| RRIRSRPPRLPRPRPRPAAIPRP | 2.36 |
| RRIRQRPPRLPRPRPRPNFVPRP | -0.0869 |
